B1: Peroxisomal biogenesis factor 19 (Homo sapiens), P40855 (parent)
chain: MAAAEEGCSVGAEADRELEELLESALDDFDKAKPSPAPPSTTTAPDASGPQKRSPGDTAKDALFASQEKFFQELFDSELASQATAEFEKAMKELAEEEPHLVEQFQKLSEAAGRVGSDMTSQQEFTSCLKETLSGLAKNATDLQNSSMSEEELTKAMEGLGMDEGDGEGNILPIMQSIMQNLLSKDVLYPSLKEITEKYPEWLQSHRESLPPEQFEKYQEQHSVMCKICEQFEAETPTDSETTQKARFEMVLDLMQQLQDLGHPPKELAGEMPPGLNFDLDALNLSGPPGASGEQCLIM
partner: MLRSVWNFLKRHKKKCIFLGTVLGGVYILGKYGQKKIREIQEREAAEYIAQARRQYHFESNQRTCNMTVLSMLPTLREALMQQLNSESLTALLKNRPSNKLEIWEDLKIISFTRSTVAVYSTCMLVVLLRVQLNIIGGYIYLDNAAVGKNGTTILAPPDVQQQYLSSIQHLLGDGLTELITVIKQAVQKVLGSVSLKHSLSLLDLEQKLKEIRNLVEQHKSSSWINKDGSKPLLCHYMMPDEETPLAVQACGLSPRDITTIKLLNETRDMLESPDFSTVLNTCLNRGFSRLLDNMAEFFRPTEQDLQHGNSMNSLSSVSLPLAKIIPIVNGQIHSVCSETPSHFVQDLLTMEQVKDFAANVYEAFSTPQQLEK
B2: Circadian locomoter output cycles protein kaput (Homo sapiens), O15516 (parent)
chain: MLFTVSCSKMSSIVDRDDSSIFDGLVEEDDKDKAKRVSRNKSEKKRRDQFNVLIKELGSMLPGNARKMDKSTVLQKSIDFLRKHKEITAQSDASEIRQDWKPTFLSNEEFTQLMLEALDGFFLAIMTDGSIIYVSESVTSLLEHLPSDLVDQSIFNFIPEGEHSEVYKILSTHLLESDSLTPEYLKSKNQLEFCCHMLRGTIDPKEPSTYEYVKFIGNFKSLNSVSSSAHNGFEGTIQRTHRPSYEDRVCFVATVRLATPQFIKEMCTVEEPNEEFTSRHSLEWKFLFLDHRAPPIIGYLPFEVLGTSGYDYYHVDDLENLAKCHEHLMQYGKGKSCYYRFLTKGQQWIWLQTHYYITYHQWNSRPEFIVCTHTVVSYAEVRAERRRELGIEESLPETAADKSQDSGSDNRINTVSLKEALERFDHSPTPSASSRSSRKSSHTAVSDPSSTPTKIPTDTSTPPRQHLPAHEKMVQRRSSFSSQSINSQSVGSSLTQPVMSQATNLPIPQGMSQFQFSAQLGAMQHLKDQLEQRTRMIEANIHRQQEELRKIQEQLQMVHGQGLQMFLQQSNPGLNFGSVQLSSGNSSNIQQLAPINMQGQVVPTNQIQSGMNTGHIGTTQHMIQQQTLQSTSTQSQQNVLSGHSQQTSLPSQTQSTLTAPLYNTMVISQPAAGSMVQIPSSMPQNSTQSAAVTTFTQDRQIRFSQGQQLVTKLVTAPVACGAVMVPSTMLMGQVVTAYPTFATQQQQSQTLSVTQQQQQQSSQEQQLTSVQQPSQAQLTQPPQQFLQTSRLLHGNPSTQLILSAAFPLQQSTFPQSHHQQHQSQQQQQLSRHRTDSLPDPSKVQPQ
B3: Rho guanine nucleotide exchange factor 39 (Homo sapiens), Q8N4T4 (parent)
chain: MELSCPGSRCPVQEQRARWERKRACTARELLETERRYQEQLGLVATYFLGILKAKGTLRPPERQALFGSWELIYGASQELLPYLEGGCWGQGLEGFCRHLELYNQFAANSERSQTTLQEQLKKNKGFRRFVRLQEGRPEFGGLQLQDLLPLPLQRLQQYENLVVALAENTGPNSPDHQQLTRAARLISETAQRVHTIGQKQKNDQHLRRVQALLSGRQAKGLTSGRWFLRQGWLLVVPPHGEPRPRMFFLFTDVLLMAKPRPPLHLLRSGTFACKALYPMAQCHLSRVFGHSGGPCGGLLSLSFPHEKLLLMSTDQEELSRWYHSLTWAISSQKN
partner: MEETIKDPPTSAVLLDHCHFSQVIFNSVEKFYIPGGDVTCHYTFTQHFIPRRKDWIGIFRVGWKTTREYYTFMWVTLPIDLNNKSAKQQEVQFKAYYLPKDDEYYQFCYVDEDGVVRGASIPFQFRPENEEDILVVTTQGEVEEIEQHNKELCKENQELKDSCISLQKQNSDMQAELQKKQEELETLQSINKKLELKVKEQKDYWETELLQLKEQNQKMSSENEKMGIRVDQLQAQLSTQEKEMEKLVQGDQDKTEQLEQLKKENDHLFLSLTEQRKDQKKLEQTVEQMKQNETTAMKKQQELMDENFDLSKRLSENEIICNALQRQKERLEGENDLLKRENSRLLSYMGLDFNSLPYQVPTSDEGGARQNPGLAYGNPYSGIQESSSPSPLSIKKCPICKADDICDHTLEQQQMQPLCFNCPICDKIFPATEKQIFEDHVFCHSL
B4: Zinc finger protein 473 (Homo sapiens), Q8WTR7 (parent)
chain: MAEEFVTLKDVGMDFTLGDWEQLGLEQGDTFWDTALDNCQDLFLLDPPRPNLTSHPDGSEDLEPLAGGSPEATSPDVTETKNSPLMEDFFEEGFSQEIIEMLSKDGFWNSNFGEACIEDTWLDSLLGDPESLLRSDIATNGESPTECKSHELKRGLSPVSTVSTGEDSMVHNVSEKTLTPAKSKEYRGEFFSYSDHSQQDSVQEGEKPYQCSECGKSFSGSYRLTQHWITHTREKPTVHQECEQGFDRNASLSVYPKTHTGYKFYVCNEYGTTFSQSTYLWHQKTHTGEKPCKSQDSDHPPSHDTQPGEHQKTHTDSKSYNCNECGKAFTRIFHLTRHQKIHTRKRYECSKCQATFNLRKHLIQHQKTHAAKTTSECQECGKIFRHSSLLIEHQALHAGEEPYKCNERGKSFRHNSTLKIHQRVHSGEKPYKCSECGKAFHRHTHLNEHRRIHTGYRPHKCQECVRSFSRPSHLMRHQAIHTAEKPYSCAECKETFSDNNRLVQHQKMHTVKTPYECQECGERFICGSTLKCHESVHAREKQGFFVSGKILDQNPEQKEKCFKCNKCEKTFSCSKYLTQHERIHTRGVKPFECDQCGKAFGQSTRLIHHQRIHSRVRLYKWGEQGKAISSASLIKLQSFHTKEHPFKCNECGKTFSHSAHLSKHQLIHAGENPFKCSKCDRVFTQRNYLVQHERTHARKKPLVCNECGKTFRQSSCLSKHQRIHSGEKPYVCDYCGKAFGLSAELVRHQRIHTGEKPYVCQECGKAFTQSSCLSIHRRVHTGEKPYRCGECGKAFAQKANLTQHQRIHTGEKPYSCNVCGKAFVLSAHLNQHLRVHTQETLYQCQRCQKAFRCHSSLSRHQRVHNKQQYCL

Variants of: B1
Conditions: with pex3_human PEX3, P56589

Effect of a mutation on the interaction, with no effect:
MAAAEEGCSVGAEADRELEELLESALDDFDKAKPSPAPPSTTTAPDASGPQKRSPGDTAKDALFASQEKFFQELFDSELASQATAEFEKAMKELAEEEPHLVEQFQKLSEAAGRVGSDMTSQQEFTSCLKETLSGLAKNATDLQNSSMSEEELTKAMEGLGMDEGDGEGNILPIMQSIMQNLLSKDVLYPSLKEITEKYPEWLQSHGESLPPEQFEKYQEQHSVMCKICEQFEAETPTDSETTQKARFEMVLDLMQQLQDLGHPPKELAGEMPPGLNFDLDALNLSGPPGASGEQCLIM [R207G]
MAAAEEGCSVGAEADRELEELLESAIDDFDKAKPSPAPPSTTTAPDASGPQKRSPGDTAKDALFASQEKFFQELFDSELASQATAEFEKAMKELAEEEPHLVEQFQKLSEAAGRVGSDMTSQQEFTSCLKETLSGLAKNATDLQNSSMSEEELTKAMEGLGMDEGDGEGNILPIMQSIMQNLLSKDVLYPSLKEITEKYPEWLQSHRESLPPEQFEKYQEQHSVMCKICEQFEAETPTDSETTQKARFEMVLDLMQQLQDLGHPPKELAGEMPPGLNFDLDALNLSGPPGASGEQCLIM [L26I]
MAAAEEGCSVGAEADRELEEVLESALDDFDKAKPSPAPPSTTTAPDASGPQKRSPGDTAKDALFASQEKFFQELFDSELASQATAEFEKAMKELAEEEPHLVEQFQKLSEAAGRVGSDMTSQQEFTSCLKETLSGLAKNATDLQNSSMSEEELTKAMEGLGMDEGDGEGNILPIMQSIMQNLLSKDVLYPSLKEITEKYPEWLQSHRESLPPEQFEKYQEQHSVMCKICEQFEAETPTDSETTQKARFEMVLDLMQQLQDLGHPPKELAGEMPPGLNFDLDALNLSGPPGASGEQCLIM [L21V]
MAAAEEGCSVGAEADRELEELLESALDDFDKAKPSPAPPSTTTAPDASGPQKRSPGDTAKDALFASQEKFFQELFDSELASQATVEFEKAMKELAEEEPHLVEQFQKLSEAAGRVGSDMTSQQEFTSCLKETLSGLAKNATDLQNSSMSEEELTKAMEGLGMDEGDGEGNILPIMQSIMQNLLSKDVLYPSLKEITEKYPEWLQSHRESLPPEQFEKYQEQHSVMCKICEQFEAETPTDSETTQKARFEMVLDLMQQLQDLGHPPKELAGEMPPGLNFDLDALNLSGPPGASGEQCLIM [A85V]

Variants of: B2
Conditions: with bmal1_human BMAL1, O00327
Sequence of bmal1_human BMAL1, O00327 (O00327 whole entry): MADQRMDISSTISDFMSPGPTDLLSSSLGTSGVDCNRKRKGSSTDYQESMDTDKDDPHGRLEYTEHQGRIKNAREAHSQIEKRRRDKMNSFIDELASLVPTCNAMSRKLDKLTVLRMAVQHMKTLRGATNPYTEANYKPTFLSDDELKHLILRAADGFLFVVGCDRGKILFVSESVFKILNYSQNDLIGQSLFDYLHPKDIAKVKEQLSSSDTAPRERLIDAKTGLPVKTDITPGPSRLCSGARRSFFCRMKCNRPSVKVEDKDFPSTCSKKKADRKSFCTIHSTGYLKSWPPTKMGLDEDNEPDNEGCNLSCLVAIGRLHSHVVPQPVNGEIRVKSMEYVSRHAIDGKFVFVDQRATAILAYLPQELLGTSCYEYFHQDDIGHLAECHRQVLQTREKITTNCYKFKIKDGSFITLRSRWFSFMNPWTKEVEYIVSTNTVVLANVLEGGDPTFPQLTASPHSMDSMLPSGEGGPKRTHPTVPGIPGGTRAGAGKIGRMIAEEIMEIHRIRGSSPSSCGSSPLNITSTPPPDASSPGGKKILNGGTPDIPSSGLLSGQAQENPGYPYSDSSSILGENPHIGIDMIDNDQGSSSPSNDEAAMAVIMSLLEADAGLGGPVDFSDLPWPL

Effect of a mutation on the interaction, with no effect:
G235E
L395I

Variants of: B3
Conditions: with caco2_human CALCOCO2, Q13137

Effect of a mutation on the interaction, with no effect:
MELSCPGSRCPVQEQRARWERKRACTARELLETERRYQEQLGLVATYFLGILKAKGTLRPPERQALFGSWELIYGASQELLPYLEGGCWGQGLEGFCRHLELYNQFAANSERSQTTLQEQLKKNKGFRRFVRLQEGRPEFGGLQLQDLLPLPLQRLQQYENLVVALAENTGPNSPDHQQLTRAARLISETAQRVHTIGQKQKNDQHLRRVQALLSGRQAKGLTSGRWFLCQGWLLVVPPHGEPRPRMFFLFTDVLLMAKPRPPLHLLRSGTFACKALYPMAQCHLSRVFGHSGGPCGGLLSLSFPHEKLLLMSTDQEELSRWYHSLTWAISSQKN [R230C]
MELSCPGSRCPVQEQRARWERKRACTARELLETERRYQEQLGLVATYFLGILKAKGTLRPPERQALFGSWELIYGASQELLPYLEGGCWGQGLEGFCRHLELYNQFAANSERSQTTLQEQLKKNKGFRRFVRLQEGRPEFGGLQLQDLLPLPLQRLQQYENLVVALAENTGPNSPDHQQLTRAARLISETAQRVHTIGQKQKNNQHLRRVQALLSGRQAKGLTSGRWFLRQGWLLVVPPHGEPRPRMFFLFTDVLLMAKPRPPLHLLRSGTFACKALYPMAQCHLSRVFGHSGGPCGGLLSLSFPHEKLLLMSTDQEELSRWYHSLTWAISSQKN [D204N]

Variants of: B4
Conditions: with gpt2l_human GPATCH2L

Effect of a mutation on the interaction, with no effect:
Y456H
E309G
S662A
T654I
S535N

Variants of: B4
Conditions: with zn792_human ZNF792, Q3KQV3
Sequence of zn792_human ZNF792, Q3KQV3 (Q3KQV3 whole entry): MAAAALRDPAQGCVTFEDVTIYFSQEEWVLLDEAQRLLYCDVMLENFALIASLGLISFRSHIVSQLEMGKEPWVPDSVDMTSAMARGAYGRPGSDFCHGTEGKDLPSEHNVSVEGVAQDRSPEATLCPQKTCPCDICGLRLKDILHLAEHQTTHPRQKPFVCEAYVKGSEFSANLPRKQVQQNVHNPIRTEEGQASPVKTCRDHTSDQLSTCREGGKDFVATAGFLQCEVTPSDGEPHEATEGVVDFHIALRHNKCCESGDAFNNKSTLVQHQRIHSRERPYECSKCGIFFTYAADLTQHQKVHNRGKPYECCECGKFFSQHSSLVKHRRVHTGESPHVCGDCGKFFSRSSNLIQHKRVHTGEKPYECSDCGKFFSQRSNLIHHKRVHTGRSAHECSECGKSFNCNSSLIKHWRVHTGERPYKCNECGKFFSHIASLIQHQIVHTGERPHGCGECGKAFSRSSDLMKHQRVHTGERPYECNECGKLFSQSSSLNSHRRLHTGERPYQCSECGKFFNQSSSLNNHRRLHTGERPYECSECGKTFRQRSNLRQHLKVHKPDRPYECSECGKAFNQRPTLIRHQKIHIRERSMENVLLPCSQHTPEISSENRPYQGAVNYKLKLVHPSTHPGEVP

Effect of a mutation on the interaction, with no effect:
Y456H
E309G
S662A
N82S
S535N

Variants of: B4
Conditions: with tri41_human TRIM41, Q8WV44

Effect of a mutation on the interaction, with no effect:
Y456H
E309G
S662A
T654I
N82S
S535N

Variants of: B4
Conditions: with aen_human AEN

Effect of a mutation on the interaction, with no effect:
Y456H
E309G
S662A
N82S
S535N

Variants of: B4
Conditions: with aen_human AEN
Remark: another data set of the same source

Effect of a mutation on the interaction, with no effect:
T654I

Variants of: B4
Conditions: with zn792_human ZNF792, Q3KQV3
Remark: another data set of the same source

Effect of a mutation on the interaction, with no effect:
T654I

— IntAct's records for PubMed 31515488
